Source: publication doi:10.1101/2023.08.31.555674, “New structural features of the APC/C from high-resolution cryo-EM structures of apo-APC/C and APC/C^CDH1:EMI1 complexes” (bioRxiv, 2023)

Columns and labels:
[1] = biological target: T1, APC8 subunit of the anaphase-promoting complex/cyclosome (human, UniProt Q9UJX2 1-597); experiment: cryo-EM structure; APC/C^CDH1:EMI1 ternary complex, 2.9 Å; complex and grids prepared as described previously [19]; Titan Krios, Falcon 3; APC/C subunits co-expressed, complex purified; settings: both partners purified
T1 construct: APC8, human, subunit of recombinant APC/C; Stood assembled in the recombinant APC/C; the contacts are told of the copy APC8(B); also called APC8(B); source: recombinant human APC/C, modified MultiBac system, as described previously [51,52]; purified within the APC/C

[2] = biological target: T2, APC1 subunit of the anaphase-promoting complex/cyclosome (human, UniProt Q9H1A4 1-1944); experiment: as above; settings: both partners purified
T2 construct: APC1, human, subunit of recombinant APC/C; Stood assembled in the unphosphorylated recombinant APC/C; source: recombinant human APC/C, modified MultiBac system, as described previously [51,52]; purified within the APC/C

B1: CDH1 (APC/C coactivator subunit) (natural protein, human, UniProt Q9UM11-2 1-493, looked up)
chain: MDQDYERRLLRQIVIQNENTMPRVTEMRRTLTPASSPVSSPSKHGDRFIPSRAGANWSVNFHRINENEKSPSQNRKAKDATSDNGKDGLAYSALLKNELLGAGIEKVQDPQTEDRRLQPSTPEKKGLFTYSLSTKRSSPDDGNDVSPYSLSPVSNKSQKLLRSPRKPTRKISKIPFKVLDAPELQDDFYLNLVDWSSLNVLSVGLGTCVYLWSACTSQVTRLCDLSVEGDSVTSVGWSERGNLVAVGTHKGFVQIWDAAAGKKLSMLEGHTARVGALAWNAEQLSSGSRDRMILQRDIRTPPLQSERRLQGHRQEVCGLKWSTDHQLLASGGNDNKLLVWNHSSLSPVQQYTEHLAAVKAIAWSPHQHGLLASGGGTADRCIRFWNTLTGQPLQCIDTGSQVCNLAWSKHANELVSTHGYSQNQILVWKYPSLTQVAKLTGHSYRVLYLAMSPDGEAIVTGAGDETLRFWNVFSKTRSTKESVSVLNLFTRIR
notes: CDH1, human; the last residue printed for CDH1 is 493 (chimera: residues 24 to 493 of CDH1), so the isoform of 493 residues is meant; the tag is told in the methods for CDH1 in general; source: expressed and purified as described previously [19,23,27]
binding result [1]: binds
binding result [2]: binds
